Measurements: patent publication US10857209B2, “Lysosomal acid lipase and PPAR gamma ligands as immune therapies for cancer treatment” (Indiana University Research and Technology Corporation, priority 2016, dated 2020)

B1: hLAL: human lysosomal acid lipase expressed from a doxycycline-controlled tissue-specific transgene in lal−/− mice; never administered as a protein (protein)
chain: GPKPVVFLQHGLLADSSNWVTNLANSSLGFILADAGFDVWMGNSRGNTWSRKHKTLSVSQDEFWAFSYDEMAKYDLPASINFILNKTGQEQVYYVGHSQGTTIGFIAFSQIPELAKRIKMFFALGPVASVAFCTSPMAKLGRLPDHLIKDLFGDKEFLPQSAFLKWLGTHVCTHVILKELCGNLCFLLCGFNERNLNMSRVDVYTTHSPAGTSVQNMLHWSQAVKFQKFQAFDWGSSAKNYFHYNQSYPPTYNVKDMLVPTAVWSGGHDWLADVYDVNILLTQITNLVFHESIPEWEHLDFIWGLDAPWRLYNKIINLMRKYQ
modifications: left off: small tags and cut ends
notes: human lysosomal acid lipase expressed from a doxycycline-controlled tissue-specific transgene in lal−/− mice; never administered as a protein

What was measured:
B16 melanoma cells [1] = assay: In vitro migration (wound healing) assay with pre-treated MDSCs; assay type: cell-based, mouse; settings: co-culture with pre-treated lal−/− Ly6G+ cells; 24 hours; mitomycin C
Description: In vitro wound healing assay was performed to analyze B16 melanoma cell migration. Briefly, B16 melanoma cells were seeded at a density of 1.5×10^5 cells/well into a 24-well plate and incubated overnight to form a confluent monolayer. Scratch was created by scraping the cell monolayer in a straight line with a p200 pipet tip. After washing 3 times with DMEM, the medium was changed with DMEM containing 10% FBS and 5 μg/mL mitomycin C (Sigma-Aldrich, St. Louis, Mo., USA), and MDSCs pre-treated with 9-HODE or ethanol for 24 hours were added onto B16 melanoma cell monolayer at a density of 1×10^6 cells/well. Images were taken at 0 and 24 hours after creating the scratch. Migration was estimated by measuring the distances from one side of scratch to the other side using Image Pro-Plus software (Media Cybernetics, Rockville, Md., USA).

Lin− cells = assay: Differentiation of bone marrow Lin− cells into Ly6G+CD11b+ cells; assay type: cell-based, mouse; settings: lal−/− Lin− cells; 10 μmol/L, 5 days; vs ethanol
Description: Lineage-negative (Lin−) cells were isolated from the bone marrow by removing blood lineage marker-positive cells with an immunomagnetic microbead technique. Briefly, bone marrow cells were first incubated with a cocktail of biotin-conjugated antibodies against lineage specific antigens: CD11b, GR-1, B220, TER-119, and CD3ε (Mouse Lineage Panel Kit, BD Pharmingen, San Diego, Calif., USA) at 4° C. for 15 minutes. After washed with PBS, cells were then incubated with anti-biotin microbeads at 4° C. for another 15 minutes. Subsequently, cells were subjected to magnetic bead sorting according to the manufacturer's instructions (Miltenyi Biotec.). The resulting Lin− cells were cultured in RPMI1640 with 10% FBS. Five days later, Ly6G^+CD11b^+ cells derived from Lin− cells were analyzed by flow cytometry analysis.

Ly6G+CD11b+ cells = assay: ROS level in Ly6G+CD11b+ cells by flow cytometry; assay type: cell-based, mouse; settings: lal−/− Ly6G+CD11b+ cells; 20 μmol/L, 48 hours
Description: The reactive oxygen species (ROS) level and mitochondrial membrane potential in MDSCs was measured by flow cytometry. Briefly, bone marrow cells were first treated with or without 20 μmol/L 9-HODE or ethanol for 2 days. For ROS level detection, cells were harvested, washed, and stained with 2′,7′-dichlorofluorescein diacetate (2 μmol/L, Invitrogen), allophycocyanin cy7-conjugated anti-Ly6G Ab, and phycoerythrin cy7-conjugated anti-CD 11b Ab (eBioscience) at 37° C. for 15 minutes. After PBS wash, the ROS level in Ly6G^+CD11b^+ cells was analyzed using a LSRII machine (BD Biosciences).

B16 melanoma cells [2] = assay: B16 melanoma metastasis in CCSP-Tg/KO mice; assay type: in vivo, mouse; settings: lung epithelial-specific expression in lal−/− mice; 5×10^5 cells i.v., two weeks
Description: For the tumor metastasis model, 5×10^5 B16 melanoma cells in 200 μL PBS were injected into the mice via tail vein. Two weeks after the injection, the mice were sacrificed and the lungs were harvested for examination of metastasis.

B16 melanoma cells [3] = assay: B16 melanoma metastasis in LAP-Tg/KO mice; assay type: in vivo, mouse; settings: hepatocyte-specific expression in lal−/− mice; 5×10^5 cells i.v., two weeks
Source text: LAP-tTA/(TetO)7-CMV-hLAL; lal^−/− (LAP-Tg/KO) triple mice of the FVB/N background was established by cross-breeding of LAP-tTA transgenic mice (Jackson's Laboratory, Bar Harbor, Me.) with a previously generated (tetO)7-CMV-hLAL transgenic mice into lal^−/− mice. This triple transgenic mouse model was hepatocyte-specific Tet-off expression of wild-type hLAL in lal^−/− mice under the control of the LAP. All scientific protocols that involved the use of animals were approved by the Institutional Animal Care and Use Committee of Indiana University School of Medicine and followed guidelines established by the Panel on Euthanasia of the American Veterinary Medical Association. Animals were housed in a secured animal facility at Indiana University School of Medicine.
Tissues from the liver, intestine, and lung were collected after mice were anesthetized. All tissues were washed with phosphate-buffered saline and dehydrated by a series of increasing ethanol concentrations, followed by paraffin embedding. Sections were stained with anti-Ki67 antibody, anti-LAL antibody, and anti-F4/80 antibody by the histologic core.
For experimental metastasis, 5×10^5 B16 melanoma cells in 200 μL of phosphate-buffered saline were injected into the mice via tail vein. Two weeks after the injection, the mice were sacrificed, and the livers and lungs were harvested for examination of metastasis.

[4] = system: CD11b+Ly6G+, CD4+, CD8+, B220+ cells; assay: Flow cytometry of immune cells in organs of LAP-Tg/KO mice; assay type: in vivo, mouse
Description: Single-cell suspensions from the bone marrow, spleen, blood, liver, and lung were prepared and analyzed as described in Qu et al., Am J Pathol 2009, 174:944-956; Qu et al., Am J Pathol 2010, 176:2394-2404; Qu et al., J Immunol 2009, 182:1648-1659). Approximately 1×10^6 cells from various organs were blocked with FcR blocking antibodies in flow cytometry buffer (BD Biosciences, San Jose, Calif.) followed by incubation with isotype control or surface specific primary antibodies. Anti-CD11b (M1/70) PE-Cyanine7, anti-Ly6G (RB6-8c5) allophycocyanin-eFluor 780, anti-CD4 fluorescein isothiocyanate, anti-CD8 […], and anti-B220 allophycocyanin were purchased from e-Biosciences (San Diego, Calif.). Cells were analyzed on a LSRII machine (BD Biosciences). Data were analyzed using the BD FACStation software (CellQuest Pro version 2.2.1, BD Bio-sciences). The total gated number of positive cells (approximately 30,000 events) was calculated as the percentage of total gated viable cells. Quadrants were assigned using isotype control monoclonal antibody.

bone marrow cells = assay: Transwell assay of bone marrow cell transendothelial migration towards BALF; assay type: cell-based, mouse; settings: BALF from doxycycline-treated CCSP-Tg/KO mice in lower chamber; 4 hours
Description: Transwell assay was used to determine cell transendothelial migration. ECs were added to the upper chamber of 24-well 8.0-μm-pore Transwell plates (Corning, Corning, N.Y., USA), and incubated at 37° C., 5% CO2 for 48 hours to form an EC monolayer. The supernatant was then removed, and CELLTRACKER™ Green 5-Chloromethylfluorescein Diacetate (CMFDA) (Invitrogen, Grand Island, N.Y., USA)-labeled bone marrow cells (1×10^4 cells in 200 μL media) were added to the upper well. After 4 hours, transendothelial migration of bone marrow cells was determined by counting their numbers in the lower chamber under 5 random microscopic fields.

[5] = doxycycline-untreated LAP-Tg/KO triple mice (hLAL on)

Molecule | B16 melanoma cell migration into wound area (B16 melanoma cells [1]) | Ly6G+CD11b+ cells derived from Lin− cells (Lin− cells) | ROS production (Ly6G+CD11b+ cells) | B16 melanoma cell metastasis in the lung (B16 melanoma cells [2]) | B16 melanoma cell metastasis in liver and lung (B16 melanoma cells [3]) | CD11b+Ly6G+ cell expansion in blood, spleen, lung, bone marrow [4, 5] | percentage and total number of CD11b+Ly6G+ cells in the liver [4, 5] | CD4+ T cells in blood, lung and spleen ([4]; hepatocyte-specific expression, LAP-Tg/KO triple mice) | bone marrow cell transendothelial migration (bone marrow cells)
9-hydroxyoctadecadienoic acid [9-HODE] | delayed migration towards the scratch | fewer Ly6G^+CD11b^+ cells | suppressed the increased ROS production | – | – | – | – | – | –
B1 | – | – | – | reduced B16 melanoma cell metastasis | reduced B16 melanoma cell metastasis | reduction of CD11b^+Ly6G^+ cell expansion was also observed in the blood, spleen, and lung, but not in the bone marrow | decreased to the levels of wild-type mice | increased CD4^+ T cells | decreased bone marrow cell transendothelial migration
